Source: the supplement of paper PMC10065799, “High-throughput profiling of sequence recognition by tyrosine kinases and SH2 domains using bacterial peptide display” (eLife, 2023)

What was measured:
AncSZ = assay: phosphorylation enrichment, bacterial display (enrichment ratio); higher = better substrate or ligand; peptides without Tyr show the background
EPHB1 = EPHB1 (UniProt P54762); assay: as above
EPHB2 = EPHB2 (UniProt P29323); assay: as above
FGFR1 = FGFR1 (UniProt P11362); assay: as above
FGFR3 = FGFR3 (UniProt P22607); assay: as above
Fer (mouse) = assay: as above
Fes = Fes (UniProt P07332); assay: as above
Fyn = Fyn (UniProt P06241); assay: as above
Hck = Hck (UniProt P08631); assay: as above
Jak2 = Jak2 (UniProt O60674); assay: as above
MERTK = MERTK (UniProt Q12866); assay: as above
c-Abl (mouse) = assay: as above
c-Src = assay: as above
Grb2 SH2 = Grb2 SH2 (UniProt P62993); assay: SH2 binding enrichment of the phosphorylated peptide, bacterial display (enrichment ratio); higher = better substrate or ligand; peptides without Tyr show the background
SHP2-C SH2 = assay: as above
c-Src SH2 = assay: as above
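Wherever SH2 binding enrichment of the phosphorylated peptide, bacterial display is given: peptide library displayed on the E. coli surface as eCPX fusions, selected cells deep-sequenced, score is each peptide's frequency after selection divided by its frequency in the input.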
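Wherever phosphorylation enrichment, bacterial display is given: 11-residue human phosphosite peptides and single-mutation variants displayed on the E. coli surface, counted by deep sequencing, each peptide's frequency after selection divided by its frequency in the unselected input library; frequency after pTyr selection over input frequency; kinase dosed for 20-30% of maximal phosphorylation in three min.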

Fyn, sequence (P06241 whole entry, looked up): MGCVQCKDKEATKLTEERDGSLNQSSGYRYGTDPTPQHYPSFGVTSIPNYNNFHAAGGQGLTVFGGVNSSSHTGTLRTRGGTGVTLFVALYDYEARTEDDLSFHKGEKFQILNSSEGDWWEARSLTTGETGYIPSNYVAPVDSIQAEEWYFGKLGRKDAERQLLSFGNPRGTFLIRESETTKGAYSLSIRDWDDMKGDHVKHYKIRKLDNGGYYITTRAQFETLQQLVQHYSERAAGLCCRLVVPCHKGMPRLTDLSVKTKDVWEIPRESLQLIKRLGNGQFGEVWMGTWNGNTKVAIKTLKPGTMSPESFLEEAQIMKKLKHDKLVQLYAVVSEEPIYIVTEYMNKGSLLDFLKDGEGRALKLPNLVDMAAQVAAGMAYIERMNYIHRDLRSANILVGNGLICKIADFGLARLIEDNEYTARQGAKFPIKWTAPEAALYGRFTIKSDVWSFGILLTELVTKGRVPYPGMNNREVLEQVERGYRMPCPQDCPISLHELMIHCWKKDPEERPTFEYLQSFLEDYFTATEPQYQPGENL
FGFR1, sequence (P11362 whole entry, looked up): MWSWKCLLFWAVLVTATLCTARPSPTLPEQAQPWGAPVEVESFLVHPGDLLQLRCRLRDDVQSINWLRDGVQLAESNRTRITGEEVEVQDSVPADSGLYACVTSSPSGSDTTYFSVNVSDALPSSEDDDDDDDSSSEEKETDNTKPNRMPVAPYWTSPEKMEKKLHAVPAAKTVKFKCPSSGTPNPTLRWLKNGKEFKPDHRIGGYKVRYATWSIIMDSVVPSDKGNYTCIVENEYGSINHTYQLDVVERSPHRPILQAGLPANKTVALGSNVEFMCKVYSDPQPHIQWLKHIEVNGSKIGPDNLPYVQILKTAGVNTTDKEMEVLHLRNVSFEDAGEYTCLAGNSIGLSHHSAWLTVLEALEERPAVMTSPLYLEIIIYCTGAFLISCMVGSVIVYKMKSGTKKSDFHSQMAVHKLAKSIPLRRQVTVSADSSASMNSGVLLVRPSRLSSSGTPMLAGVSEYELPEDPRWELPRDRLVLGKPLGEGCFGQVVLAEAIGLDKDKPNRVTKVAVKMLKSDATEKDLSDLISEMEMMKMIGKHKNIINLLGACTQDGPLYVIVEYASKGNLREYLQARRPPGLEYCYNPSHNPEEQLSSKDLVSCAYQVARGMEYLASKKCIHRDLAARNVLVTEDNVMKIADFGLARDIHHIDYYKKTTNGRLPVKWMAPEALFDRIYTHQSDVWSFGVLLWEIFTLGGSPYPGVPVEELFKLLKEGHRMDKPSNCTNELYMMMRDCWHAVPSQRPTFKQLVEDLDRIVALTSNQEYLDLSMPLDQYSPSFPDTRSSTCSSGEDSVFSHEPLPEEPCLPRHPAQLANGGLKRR
EPHB2, sequence (P29323 whole entry, looked up): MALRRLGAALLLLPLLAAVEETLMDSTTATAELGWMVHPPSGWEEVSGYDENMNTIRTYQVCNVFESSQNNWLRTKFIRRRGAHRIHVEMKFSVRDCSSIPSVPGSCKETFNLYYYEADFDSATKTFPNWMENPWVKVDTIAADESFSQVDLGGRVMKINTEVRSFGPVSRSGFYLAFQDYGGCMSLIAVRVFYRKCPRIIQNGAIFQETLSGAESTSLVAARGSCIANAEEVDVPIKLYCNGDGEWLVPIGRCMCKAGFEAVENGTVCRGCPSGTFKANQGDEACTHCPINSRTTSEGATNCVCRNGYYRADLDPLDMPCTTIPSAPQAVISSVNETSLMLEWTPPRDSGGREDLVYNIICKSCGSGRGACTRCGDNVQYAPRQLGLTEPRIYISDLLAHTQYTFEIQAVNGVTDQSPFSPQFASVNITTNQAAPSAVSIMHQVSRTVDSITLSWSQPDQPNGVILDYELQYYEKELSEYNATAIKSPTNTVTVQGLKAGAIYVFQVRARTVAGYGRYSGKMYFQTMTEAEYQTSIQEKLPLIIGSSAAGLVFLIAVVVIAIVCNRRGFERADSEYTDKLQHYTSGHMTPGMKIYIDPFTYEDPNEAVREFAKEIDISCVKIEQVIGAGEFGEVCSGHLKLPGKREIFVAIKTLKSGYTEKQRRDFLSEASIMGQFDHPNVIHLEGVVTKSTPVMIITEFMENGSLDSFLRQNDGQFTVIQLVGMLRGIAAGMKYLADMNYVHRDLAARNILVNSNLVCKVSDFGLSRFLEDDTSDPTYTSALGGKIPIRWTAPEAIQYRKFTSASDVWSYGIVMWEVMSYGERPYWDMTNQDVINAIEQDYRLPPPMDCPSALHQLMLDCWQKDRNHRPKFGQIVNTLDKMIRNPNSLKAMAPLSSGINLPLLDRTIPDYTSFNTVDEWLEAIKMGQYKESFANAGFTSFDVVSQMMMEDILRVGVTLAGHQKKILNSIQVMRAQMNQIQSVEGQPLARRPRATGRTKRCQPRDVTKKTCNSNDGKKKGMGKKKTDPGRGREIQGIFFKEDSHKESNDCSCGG
Fes, sequence (P07332 whole entry, looked up): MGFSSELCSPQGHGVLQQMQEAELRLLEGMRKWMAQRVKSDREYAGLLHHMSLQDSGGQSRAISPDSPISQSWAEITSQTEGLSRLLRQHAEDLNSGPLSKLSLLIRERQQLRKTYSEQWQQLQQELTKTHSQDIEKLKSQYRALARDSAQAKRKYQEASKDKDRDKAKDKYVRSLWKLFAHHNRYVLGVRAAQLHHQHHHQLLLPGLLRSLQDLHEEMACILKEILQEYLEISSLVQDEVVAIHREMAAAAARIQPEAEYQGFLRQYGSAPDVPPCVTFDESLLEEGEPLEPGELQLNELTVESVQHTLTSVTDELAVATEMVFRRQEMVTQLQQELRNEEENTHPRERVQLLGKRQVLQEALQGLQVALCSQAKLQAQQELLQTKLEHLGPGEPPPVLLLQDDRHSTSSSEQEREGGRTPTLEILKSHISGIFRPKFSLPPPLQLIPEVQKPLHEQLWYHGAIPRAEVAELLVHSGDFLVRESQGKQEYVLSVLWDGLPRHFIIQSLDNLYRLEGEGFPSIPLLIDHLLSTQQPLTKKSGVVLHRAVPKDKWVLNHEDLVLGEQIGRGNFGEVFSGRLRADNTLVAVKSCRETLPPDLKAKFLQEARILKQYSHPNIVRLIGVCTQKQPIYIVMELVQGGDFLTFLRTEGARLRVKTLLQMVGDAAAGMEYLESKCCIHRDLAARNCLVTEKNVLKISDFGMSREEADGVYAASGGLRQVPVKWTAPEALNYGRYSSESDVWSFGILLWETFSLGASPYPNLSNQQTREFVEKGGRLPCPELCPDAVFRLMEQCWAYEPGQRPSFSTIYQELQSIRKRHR
Jak2, sequence (O60674 whole entry, looked up): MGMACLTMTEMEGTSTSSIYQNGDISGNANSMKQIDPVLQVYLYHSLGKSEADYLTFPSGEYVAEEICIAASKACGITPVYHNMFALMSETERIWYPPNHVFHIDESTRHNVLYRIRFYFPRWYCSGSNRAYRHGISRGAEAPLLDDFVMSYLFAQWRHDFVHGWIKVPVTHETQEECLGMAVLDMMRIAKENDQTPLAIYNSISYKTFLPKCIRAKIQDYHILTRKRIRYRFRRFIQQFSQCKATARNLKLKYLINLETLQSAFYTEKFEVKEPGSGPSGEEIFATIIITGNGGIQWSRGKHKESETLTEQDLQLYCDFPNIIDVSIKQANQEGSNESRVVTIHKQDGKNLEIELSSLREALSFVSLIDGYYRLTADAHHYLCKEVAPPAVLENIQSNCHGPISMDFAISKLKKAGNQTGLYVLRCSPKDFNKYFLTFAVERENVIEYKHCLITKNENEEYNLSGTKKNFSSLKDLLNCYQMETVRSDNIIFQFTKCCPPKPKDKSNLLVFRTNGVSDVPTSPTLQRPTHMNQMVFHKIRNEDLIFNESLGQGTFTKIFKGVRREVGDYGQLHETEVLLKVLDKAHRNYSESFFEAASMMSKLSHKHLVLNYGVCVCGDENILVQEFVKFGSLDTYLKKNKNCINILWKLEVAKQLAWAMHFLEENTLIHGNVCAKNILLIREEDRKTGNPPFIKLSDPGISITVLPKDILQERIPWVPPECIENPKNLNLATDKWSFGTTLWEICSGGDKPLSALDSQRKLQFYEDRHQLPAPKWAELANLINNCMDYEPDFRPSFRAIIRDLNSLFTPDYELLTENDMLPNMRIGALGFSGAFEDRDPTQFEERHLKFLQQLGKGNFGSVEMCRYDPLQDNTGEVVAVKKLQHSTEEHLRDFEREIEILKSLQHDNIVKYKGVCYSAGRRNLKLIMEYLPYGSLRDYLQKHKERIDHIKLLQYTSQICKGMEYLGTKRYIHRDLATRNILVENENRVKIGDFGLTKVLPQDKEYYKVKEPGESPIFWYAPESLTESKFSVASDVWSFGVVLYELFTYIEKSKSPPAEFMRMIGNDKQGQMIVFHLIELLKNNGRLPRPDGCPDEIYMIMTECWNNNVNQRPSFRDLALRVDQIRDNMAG
Hck, sequence (P08631 whole entry, looked up): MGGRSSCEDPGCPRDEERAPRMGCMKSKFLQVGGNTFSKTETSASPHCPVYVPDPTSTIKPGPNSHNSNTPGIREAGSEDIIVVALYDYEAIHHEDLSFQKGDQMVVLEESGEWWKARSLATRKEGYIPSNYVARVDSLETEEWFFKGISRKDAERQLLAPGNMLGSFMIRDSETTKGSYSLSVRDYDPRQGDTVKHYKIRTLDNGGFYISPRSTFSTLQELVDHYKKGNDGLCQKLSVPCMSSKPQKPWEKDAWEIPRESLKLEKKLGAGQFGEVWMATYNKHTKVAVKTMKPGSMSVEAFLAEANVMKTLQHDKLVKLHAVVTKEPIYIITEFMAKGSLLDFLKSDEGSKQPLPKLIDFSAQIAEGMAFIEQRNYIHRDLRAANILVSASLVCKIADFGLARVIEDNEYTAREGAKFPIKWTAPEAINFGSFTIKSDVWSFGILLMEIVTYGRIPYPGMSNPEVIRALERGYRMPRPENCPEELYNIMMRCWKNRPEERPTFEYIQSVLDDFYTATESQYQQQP

SH2 binding enrichment (Grb2 SH2)	SH2 binding enrichment (SHP2-C SH2)	SH2 binding enrichment (c-Src SH2)	Sequence	phosphorylation enrichment (AncSZ)	phosphorylation enrichment (EPHB1)	phosphorylation enrichment (EPHB2)	phosphorylation enrichment (FGFR1)	phosphorylation enrichment (FGFR3)	phosphorylation enrichment (Fer (mouse))	phosphorylation enrichment (Fes)	phosphorylation enrichment (Fyn)	phosphorylation enrichment (Hck)	phosphorylation enrichment (Jak2)	phosphorylation enrichment (MERTK)	phosphorylation enrichment (c-Abl (mouse))	phosphorylation enrichment (c-Src)
0.748	0.724	0.459	FQNGMYGLHQD [SGSH_Y89_H84Y_YF]	0.665	0.437	0.543	0.462	0.555	0.454	0.709	0.599	0.598	0.733	0.456	0.552	0.828
0.843	0.782	0.657	FRIGPYQPSVP [MATR3_Y784_N787S_YF]	0.712	0.604	0.543	0.517	0.616	0.5	0.868	0.453	0.537	0.662	0.412	0.536	0.478
1.03	0.539	0.624	FSDQVYRQHRK [TH_Y230_R233H]	0.555	0.335	0.452	0.388	0.441	0.355	0.644	0.378	0.447	0.529	0.357	0.819	0.452
0.626	0.562	0.523	FSNKLYFQLEQ [PDPR_Y109_YF]	1.35	0.849	0.664	3.05	2.7	0.661	1.19	0.636	0.694	1.49	1.64	0.796	0.621
0.918	0.99	4.44	FSNPAYYVLEG [INPPL1_Y986_N982S]	0.834	0.614	0.509	10.1	7.89	0.426	0.848	1.32	0.778	3.92	6.51	0.591	1.43
0.849	0.702	0.56	FSTDFYRVGGH [NTRK2_Y707_YF]	0.722	0.637	0.405	0.459	0.569	0.471	0.813	0.493	0.396	0.704	0.429	0.756	0.478
0.865	1.5	1.04	FTAVGYHKHFT [NOMO1_Y1137_I1141F]	0.614	0.252	0.366	0.449	0.589	0.449	0.935	0.431	0.426	0.782	0.424	0.491	0.552
0.721	0.586	0.415	FTGDIYSNSNL [LZTR1_Y141_YF]	0.957	0.903	0.738	0.667	0.502	2.87	0.849	6.36	7.46	0.756	1.1	0.831	5.54
1.08	0.658	0.634	FTTIHYNFMCN [TP53_Y234_C229Y_YF]	1.03	0.74	0.65	0.682	0.887	0.565	1.4	0.496	0.63	1.24	0.495	0.987	0.455
0.92	0.699	0.817	FTYDPYSEEEP [IL2RB_Y387_D391E]	1.22	0.652	0.572	0.5	0.818	0.601	1.25	1.14	0.825	1.27	0.524	0.915	1.69
0.758	0.63	0.418	GAEIVYKSPVV [MAPT_Y711]	0.892	0.747	0.581	0.478	0.672	0.416	0.904	0.533	0.497	0.694	0.558	18.3	0.526
0.551	0.622	0.367	GAVGNYSGGLA [MGMT_Y158]	0.57	0.554	0.48	0.453	0.61	0.483	0.765	0.374	0.408	0.419	0.422	0.43	0.335
1.38	1.6	1.54	GCRSKYVRLWG [KCNQ1_Y184_G186R]	0.628	0.383	0.409	0.462	0.486	0.472	0.696	0.425	0.461	0.636	0.444	0.492	0.495
0.618	0.701	0.491	GDFFCYLAEVA [YWHAG_Y133_R132C_YF]	1.33	0.863	0.655	0.557	0.922	0.865	1.52	0.702	0.608	1.39	0.546	1.12	0.484
0.807	0.584	0.501	GEEIKDMLWLS [OTC_Y55_Y55D]	0.913	0.448	0.462	0.475	0.566	0.428	1	0.475	0.446	0.822	0.425	0.672	0.361
0.646	0.714	0.346	GEEIKYMLWLS [OTC_Y55]	1.24	0.592	0.62	0.682	0.934	0.745	1.28	0.493	0.645	1.21	0.703	1.19	0.518
